Test results as given in US20210275686A1, “BINDER/ACTIVE AGENT CONJUGATES DIRECTED AGAINST CXCR5, HAVING ENZYMATICALLY CLEAVABLE LINKERS AND IMPROVED ACTIVITY PROFILE” (BAYER AKTIENGESELLSCHAFT, priority 2018, published 2021).
Numbering of substitutions follows the chain as printed. Blank lines part the entries; values can stand above or below the molecule they belong to.

Experiments:
[1] = tested on: Rec-1: human mantle cell lymphoma cells; assay: Cytotoxic activity, CTG assay, Rec-1; format: cell-based; conditions: Rec1, metabolites
Procedure: (§1) The culturing of the cells is performed according to the standard method, as specified at the American Tissue Culture Collection (ATCC) or the Leibniz-Institut DSMZ-Deutsche Sammlung von Mikroorganismen and Zellkulturen GmbH (DSMZ) for the respective cell lines.
The cells were cultured using the standard method, with the growth media specified under C-1. To perform the test, the suspended cells were counted and seeded in a 96-well culture plate with a white background (Perkin Elmer, NO 10775584) (at 75 μL/well; the resulting cell numbers per well are: Rec-1: 3000 cells/well, HBL-1 and Oci-Ly-1: 6000 cells/well) and incubated in an incubator at 37° C. and 5% carbon dioxide. […] In a parallel plate, the cell vitality was determined at the beginning of the active agent treatment (day 0) with the Cell Titer Glow (CTG) Luminescent Cell Viability Assay (Promega #G7573 and #G7571). For this purpose, 100 μL of the substrate were added per cell batch; then the plates were covered with aluminum foil, shaken for 2 minutes at 180 rpm with the plate shaker, allowed to stand for 8 minutes on the laboratory bench and then measured with a luminometer (Victor X2, Perkin Elmer). The substrate detected the ATP content in the living cells, generating a luminescence signal whose height is directly proportional to the vitality of the cells. […]

[2] = tested on: Rec-1: human mantle cell lymphoma cells; assay: Cytotoxic activity, MTT assay, Rec-1; format: cell-based; conditions: Rec1, metabolites, 96 h
Procedure: as §1
(§2) The culturing of the cells was performed according to the standard method with the growth media specified under C-1. For execution, the cells were separated with a solution of Accutase in PBS (Biochrom AG #L2143), pelleted, resuspended in culture medium, counted and seeded on a 96-well culture plate with a white background (Costar #3610) (NCI H292: 2500 cells/well; in 100 μL total volume). Then the cells were incubated in an incubator at 37° C. and 5% carbon dioxide. After 48 h a change of medium was performed. […] The cells in the suspension were counted and seeded into a 96-well culture plate with white background (Costar #3610) (#3610) (Rec-1: 3000 cells/well at a total volume of 100 μL). […] After 96 h the cell proliferation was detected using the MTT assay (ATCC, Manassas, Va., USA, Catalog No. 30-1010K). […] The color formed was detected at 570 nm (Infinite M1000 pro, Tecan). Based on the measured data the IC50 of the growth inhibition was calculated using the DRC (dose-response curve). […]

[3] = tested on: NCI-H292: human mucoepidermoid lung cancer cells; assay: Cytotoxic activity, MTT assay, NCI-H292; format: cell-based; conditions: metabolites, 96 h
Procedure: as §1, §2

[4] = biological target: T1, human kinesin spindle protein KSP/Eg5 (Homo sapiens, UniProt P52732); assay: Inhibition of kinesin spindle protein KSP/Eg5 (ATPase, malachite green); format: biochemical; conditions: 10 nM KSP motor domain, microtubules, 500 μM ATP, 2 h RT
T1 construct: The motor domain of the human kinesin spindle protein KSP/Eg5; purchased tebu-bio/Cytoskeleton Inc 027EG01-XL
T1 sequence (P52732 18-359 limits assumed): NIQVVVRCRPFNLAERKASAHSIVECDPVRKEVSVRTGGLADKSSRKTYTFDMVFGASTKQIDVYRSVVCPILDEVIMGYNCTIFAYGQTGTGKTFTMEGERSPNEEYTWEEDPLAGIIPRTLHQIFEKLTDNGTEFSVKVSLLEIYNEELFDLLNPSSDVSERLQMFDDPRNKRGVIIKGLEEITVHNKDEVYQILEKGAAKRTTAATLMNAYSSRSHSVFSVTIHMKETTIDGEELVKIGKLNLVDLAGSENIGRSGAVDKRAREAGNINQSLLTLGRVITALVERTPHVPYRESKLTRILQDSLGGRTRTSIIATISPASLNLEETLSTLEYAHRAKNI

[5] = biological target: T2, legumain (Homo sapiens, UniProt Q99538); assay: Legumain assay; format: biochemical; conditions: recombinant human legumain (rhlegumain), 3 μM substrate, pH 5.0, read-out: half-life of legumain-mediated cleavage (converted)
T2 construct: purchased R&D Systems 2199-CY
T2 sequence (Q99538 26-323 limits assumed): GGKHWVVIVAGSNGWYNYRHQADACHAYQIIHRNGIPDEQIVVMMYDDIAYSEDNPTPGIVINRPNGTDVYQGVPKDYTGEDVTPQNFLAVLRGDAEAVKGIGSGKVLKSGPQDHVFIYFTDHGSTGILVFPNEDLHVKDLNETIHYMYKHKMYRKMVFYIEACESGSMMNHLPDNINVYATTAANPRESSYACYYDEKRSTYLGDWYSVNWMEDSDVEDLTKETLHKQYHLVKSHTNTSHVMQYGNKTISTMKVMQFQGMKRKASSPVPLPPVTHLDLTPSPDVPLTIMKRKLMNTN
Procedure: The legumain assay was performed with recombinant human enzyme. The rhlegumain enzyme solution (Catalog #2199-CY, R&D Systems) was diluted to the desired concentration in 50 mM Na acetate buffer/100 mM NaCl, pH4.0, and preincubated for 2 h at 37° C. The rhlegumain was then adjusted to a final concentration of […] in 50 mM MES buffer, 250 mM NaCl, pH 5.0. For each legumain-cleavable prodrug to be investigated, a reaction mixture was made up in a micro-reaction vessel (0.5 ml, Eppendorf). For this, the substrate solution was adjusted with 50 mM MES buffer, 250 mM NaCl, pH 5.0 to the desired concentration (2-fold concentration). For the kinetic measurement of the enzymatic reaction, first 250 μL of the legumain solution was taken and the enzymatic reaction was started by adding 250 μL of the substrate solution (final concentration, single concentration; 3 μM). Samples of 50 μL each were taken at various times. Immediately, 100 μL ice-cold methanol was added to the sample to stop the enzymatic reaction and then frozen at −20° C. The selected sampling times were after 0.5 h, 1 h, 3 h and 24 h. The samples were then examined by RP-HPLC analysis and by LC-MS. The determination of the toxophore released enabled the determination of the half-time t1/2 of the enzymatic reaction.

[6] = biological target: CXCR5 (CD185; SwissProt: P32302; NCBI reference sequence: NP_001707.1) (human) (UniProt P32302); assay: cell-based or functional assay
[7] = biological target: T3, CXCR5 (CD185; SwissProt: P32302; NCBI reference sequence: NP_001707.1) (human, UniProt P32302 1-372); assay: cell-based or functional assay
T3 sequence: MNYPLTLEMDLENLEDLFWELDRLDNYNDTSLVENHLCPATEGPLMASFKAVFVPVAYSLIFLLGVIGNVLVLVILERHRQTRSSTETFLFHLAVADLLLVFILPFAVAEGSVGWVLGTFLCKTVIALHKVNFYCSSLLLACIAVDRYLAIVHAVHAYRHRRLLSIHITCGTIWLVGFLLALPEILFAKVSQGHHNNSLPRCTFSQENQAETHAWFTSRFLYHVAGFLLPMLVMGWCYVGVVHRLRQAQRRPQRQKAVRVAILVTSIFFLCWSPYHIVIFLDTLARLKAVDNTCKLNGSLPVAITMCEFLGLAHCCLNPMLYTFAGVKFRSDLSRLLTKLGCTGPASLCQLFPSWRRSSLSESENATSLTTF

- Internalization Rec-1 [MFI] [7]: 135 MFI
- Internalization SU-DHL-6 [MFI] [7]: 61 MFI
B3: TPP-14505 (antibody, human IgG1, lambda, V domains shown)
VH: EVQLLESGGGLVQPGGSLRLSCAASGFTFSNNWMSWVRQAPGKGLEWVSAISGSGGSTYYADSVKGRFTISRDNSKNTLYLQMNSLRAEDTAVYYCNVQRRELGATNWGQGTLVTVSS
VL: QSVLTQPPSASGTPGQRVTISCTGSSSNIGAGYVVHWYQQLPGTAPKLLIYSNNQRPSGVPDRFSGSKSGTSASLAISGLRSEDEADYYCQSYDSSLSGVVFGGGTKLTVLG
modifications: CypHer 5E fluorescent dye coupled to lysine residues (positions not stated)

- Internalization Rec-1 [MFI] [7]: 99 MFI
- Internalization SU-DHL-6 [MFI] [7]: 24 MFI
B4: TPP-14511 (antibody, human IgG1, lambda, V domains shown)
VH: B3 VH with N32Y, S57T, N97T, V98T
VL: B3 VL
modifications: CypHer 5E fluorescent dye coupled to lysine residues (positions not stated)

- Internalization Rec-1 [MFI] [7]: 122 MFI
- Internalization SU-DHL-6 [MFI] [7]: 55 MFI
B5: TPP-14499 (antibody, human IgG1, lambda, V domains shown)
VH: B3 VH with N32Y, M34G, N97T, Q99L
VL: B3 VL
modifications: CypHer 5E fluorescent dye coupled to lysine residues (positions not stated)

- Internalization Rec-1 [MFI] [7]: 134 MFI
- Internalization SU-DHL-6 [MFI] [7]: 53 MFI
B7: TPP-14514 (antibody, human IgG1, lambda, V domains shown)
VH: B3 VH with N97T
VL: B3 VL
modifications: CypHer 5E fluorescent dye coupled to lysine residues (positions not stated)

- Internalization Rec-1 [MFI] [7]: 129 MFI
- Internalization SU-DHL-6 [MFI] [7]: 51 MFI
B8: TPP-14509 (antibody, human IgG1, lambda, V domains shown)
VH: B3 VH with N32Y, N97T
VL: B3 VL
modifications: CypHer 5E fluorescent dye coupled to lysine residues (positions not stated)

Further lines, the molecule ahead of its results:

Molecule: CC(C)(C)[C@H](c1cc(-c2cc(F)ccc2F)cn1Cc1ccccc1)N(CCCN)C(=O)CO [Reference Example R1M, N-(3-Aminopropyl)-N-{(IR)-1-[1-benzyl-4-(2,5-difluorophenyl)-IH-pyrrol-2-yl]-2,2-dimethylpropyl}-2-hydroxyacetamide, reference compound]
- IC50 [1]: 0.205 nM
- IC50 [2]: 0.293 nM
- IC50 [3]: 0.27 nM
- IC50 [4]: 1.09 nM

Molecule: CC(C)(C)[C@H](c1cc(-c2cc(F)ccc2F)cn1Cc1ccccc1)N(CC[C@H](N)C(=O)NCCC(=O)N[C@H](CCC(=O)O)C(=O)O)C(=O)CO [Example M1, N-{(2S)-2-Amino-4-[{(1R)-1-[1-benzyl-4-(2,5-difluorophenyl)-1H-pyrrol-2-yl]-2,2-dimethylpropyl}(glycoloyl)amino]butanoyl}-beta-alanyl-D-glutamic acid]
- IC50 [1]: 309 nM
- IC50 [2]: 387 nM

Molecule: CNC(=O)[C@H](CCN(C(=O)CO)[C@@H](c1cc(-c2cc(F)ccc2F)cn1Cc1ccccc1)C(C)(C)C)NC(=O)[C@H](CC(N)=O)NC(=O)[C@H](C)N(C)C(=O)[C@H](C)NC(=O)Cc1ccncc1 [Model Compound A]
- half-life at 3 µM [5]: 30 min

Molecule: Isotype control (antibody)
- Internalization Rec-1 [MFI] [6]: 2 MFI
- Internalization SU-DHL-6 [MFI] [6]: 1 MFI

B1: 40C01 (antibody, human IgG1, kappa, V domains shown)
VH: EVQLLESGGGLVQPGGSLRLSCAASGFTFSRYVMVWVRQAPGKGLEWVSGISPSGGVTRYAASVKGRFTISRDNSKNTLYLQMNSLRAEDTAVYYCARIRKEMTTISYFFDYWGQGTLVTVSS
VL: DIQMTQSPSSLSASVGDRVTITCRASQGVDAYVAWYQQKPGKVPKLLIYSTSTLASGVPSRFSGSGSGTDFTLTISSLQPEDVATYYCQSHNAAVVTFGQGTRLEIKR
modifications: CypHer 5E fluorescent dye coupled to lysine residues (positions not stated)
- Internalization Rec-1 [MFI] [7]: 49 MFI
- Internalization SU-DHL-6 [MFI] [7]: 13 MFI

B2: TPP-14495 (antibody, human IgG1, lambda, V domains shown)
VH: B3 VH with N32Y, Y59R, N97T, V98T
VL: B3 VL
modifications: CypHer 5E fluorescent dye coupled to lysine residues (positions not stated)
- Internalization Rec-1 [MFI] [7]: 84 MFI
- Internalization SU-DHL-6 [MFI] [7]: 12 MFI

B6: TPP-10063 (antibody, human IgG1, lambda, V domains shown)
VH: B3 VH with N32Y, N97T, V98T, Q99L
VL: B3 VL
modifications: CypHer 5E fluorescent dye coupled to lysine residues (positions not stated)
- Internalization Rec-1 [MFI] [7]: 65 MFI
- Internalization SU-DHL-6 [MFI] [7]: 22 MFI
